Consider one molecule from paper PMC3608519 (Journal of immunology (Baltimore, Md. : 1950), 2013).

This assay has as its target RSV fusion (F) protein ectodomain (Human respiratory syncytial virus; …, UniProt P03420). Nature of the assay: SPR.

Chain of RSV fusion (F) protein ectodomain (P03420 26-524): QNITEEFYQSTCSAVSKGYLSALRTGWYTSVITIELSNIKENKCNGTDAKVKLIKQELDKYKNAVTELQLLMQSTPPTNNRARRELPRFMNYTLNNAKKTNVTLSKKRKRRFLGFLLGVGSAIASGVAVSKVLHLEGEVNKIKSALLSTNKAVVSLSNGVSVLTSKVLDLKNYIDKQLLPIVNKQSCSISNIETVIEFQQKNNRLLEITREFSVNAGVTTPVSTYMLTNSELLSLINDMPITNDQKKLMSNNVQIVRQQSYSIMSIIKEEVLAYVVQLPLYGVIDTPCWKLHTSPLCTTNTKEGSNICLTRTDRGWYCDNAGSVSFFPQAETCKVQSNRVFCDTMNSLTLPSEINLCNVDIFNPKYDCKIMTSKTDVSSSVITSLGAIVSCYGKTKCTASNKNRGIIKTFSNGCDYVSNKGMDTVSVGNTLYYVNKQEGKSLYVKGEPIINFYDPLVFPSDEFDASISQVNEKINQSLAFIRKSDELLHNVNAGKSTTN

B1: Fab19 (fully matured, wild-type) (Fab, V domains shown)
VH: VQLLEVESGGGLRPGGSLRLSCAASGTTLSGYTMHWVRQAPGKGLEWVSSITGGSNFINYSDSVKGRFTISRDNAKNSLYLQMNSLTAEDTAVYYCATAPIAPPYFDHWGQGTLVTVSS
VL: ELTQSPSSLSASVGDRVTITCRATQSVSNFLNWYQQKPGEAPTLLIYDASTSQSGVPSRFSGSGSGMDFSLTISSLQPEDLAMYYCQASINTPLFGGGTRIDMR
In general, koff refers to the rate constant with which the complex falls apart. A higher koff goes with fast dissociation. In the case of B1, the koff amounted to 0.0057 s⁻¹.
